Among the data in publication PMC7738341 are FRAP mobile fraction (Mob calc) in live HeLa cells and MTs-bound fraction values, retold here.

Assay [1] concerns the target tubulin (microtubules) (human (endogenous in HeLa)) (UniProt P68363).
For assay [2] the target is unchanged. Put plainly: FRAP; live HeLa cells expressing the CST, 37°C, 5% CO2; EYFP bleached in a circular ROI of 2 μm radius in the cytoplasm; recovery curves fitted by a two-phase exponential association function; the phase with lower mobility is named MTs-bound fraction.

Sequence of UniProt P68363 (P68363 whole entry, chain 1 of 2): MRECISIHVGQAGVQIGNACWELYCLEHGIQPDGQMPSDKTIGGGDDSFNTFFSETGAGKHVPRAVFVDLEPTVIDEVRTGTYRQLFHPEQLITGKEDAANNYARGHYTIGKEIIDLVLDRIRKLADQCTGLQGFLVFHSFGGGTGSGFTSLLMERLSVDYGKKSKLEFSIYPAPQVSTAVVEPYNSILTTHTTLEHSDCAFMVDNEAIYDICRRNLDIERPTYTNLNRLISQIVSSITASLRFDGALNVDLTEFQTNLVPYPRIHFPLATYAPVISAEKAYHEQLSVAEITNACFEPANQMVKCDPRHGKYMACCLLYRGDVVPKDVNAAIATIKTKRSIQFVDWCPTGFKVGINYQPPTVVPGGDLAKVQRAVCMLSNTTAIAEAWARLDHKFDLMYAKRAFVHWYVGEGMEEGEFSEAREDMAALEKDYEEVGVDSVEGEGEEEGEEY
Sequence of UniProt P68363 (P07437 whole entry, chain 2 of 2, further chain): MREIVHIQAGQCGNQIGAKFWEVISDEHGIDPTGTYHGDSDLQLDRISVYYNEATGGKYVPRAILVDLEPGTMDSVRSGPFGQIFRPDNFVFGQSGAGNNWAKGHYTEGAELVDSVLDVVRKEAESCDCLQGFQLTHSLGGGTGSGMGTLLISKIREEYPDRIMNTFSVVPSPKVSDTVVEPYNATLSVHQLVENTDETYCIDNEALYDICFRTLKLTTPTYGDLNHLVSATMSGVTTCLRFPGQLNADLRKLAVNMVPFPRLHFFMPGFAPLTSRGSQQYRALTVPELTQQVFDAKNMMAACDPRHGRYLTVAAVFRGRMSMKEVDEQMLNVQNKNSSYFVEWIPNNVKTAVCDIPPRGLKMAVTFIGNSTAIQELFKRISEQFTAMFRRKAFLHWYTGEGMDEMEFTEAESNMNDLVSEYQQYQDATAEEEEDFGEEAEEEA

Regarding “Conformational Sensitive Tau with the Q336H mutation (CST^Q336H) (from UniProt P10636-8 1-441) (natural protein)”, in assay [1], the FRAP mobile fraction (Mob calc) in live HeLa cells is 79%.

In the case of “Conformational Sensitive Tau, wild type (CST^WT) (from UniProt P10636-8 1-441) (natural protein)”, in assay [2], the MTs-bound fraction turned out to be 61%.
